This is an account of results in patent CN105585631A (BEIJING HEALTH GUARD BIOTECHNOLOGY CO LTD, dated 2016).

The target of experiment [1] is HPV-16 L1 VLP (重组人乳头瘤病毒-16型VLP蛋白, 未变性) (人乳头瘤病毒16型 (HPV16)) (UniProt P03101). Kind of experiment: indirect ELISA, HPV16 VLP 200 ng/well coated, antibody at 1, 0.2 and 0.04 ug/ml.
The target is the same in experiment [2]. Kind of experiment: indirect ELISA, native VLP 2 ug/ml coated, antibody 0.3 ug/ml.
Experiment [3] shares this target. The experiment can be described thus: competition ELISA on coated HPV16 VLP; HRP-labelled antibody 0.3 ug/ml; competitor: WHO international standard 05/134 at 0.5 IU/ml.
The target in another experiment is T1, HPV-18 L1 VLP (HPV18, UniProt P06794 62-568).
T1 construct: also called HPV18 VLP
T1 sequence: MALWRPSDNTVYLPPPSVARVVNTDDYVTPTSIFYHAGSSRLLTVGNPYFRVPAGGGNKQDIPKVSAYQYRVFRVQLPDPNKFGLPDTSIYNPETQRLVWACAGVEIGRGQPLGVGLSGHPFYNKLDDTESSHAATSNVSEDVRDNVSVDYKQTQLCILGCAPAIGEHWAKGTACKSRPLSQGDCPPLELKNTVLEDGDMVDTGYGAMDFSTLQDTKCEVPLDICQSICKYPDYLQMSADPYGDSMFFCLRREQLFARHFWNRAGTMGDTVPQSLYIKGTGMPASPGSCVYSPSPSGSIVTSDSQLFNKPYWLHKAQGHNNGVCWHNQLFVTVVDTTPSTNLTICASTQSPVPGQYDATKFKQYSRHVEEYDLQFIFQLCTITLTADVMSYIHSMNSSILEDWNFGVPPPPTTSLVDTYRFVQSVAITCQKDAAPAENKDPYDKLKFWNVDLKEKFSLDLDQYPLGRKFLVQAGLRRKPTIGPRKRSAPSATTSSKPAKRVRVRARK
Kind of experiment: indirect ELISA, VLP 2 ug/ml coated.

The target in the next experiment is T2, HPV-58 L1 VLP (HPV58, UniProt P26535 27-524).
T2 construct: also called HPV58VLP
T2 sequence: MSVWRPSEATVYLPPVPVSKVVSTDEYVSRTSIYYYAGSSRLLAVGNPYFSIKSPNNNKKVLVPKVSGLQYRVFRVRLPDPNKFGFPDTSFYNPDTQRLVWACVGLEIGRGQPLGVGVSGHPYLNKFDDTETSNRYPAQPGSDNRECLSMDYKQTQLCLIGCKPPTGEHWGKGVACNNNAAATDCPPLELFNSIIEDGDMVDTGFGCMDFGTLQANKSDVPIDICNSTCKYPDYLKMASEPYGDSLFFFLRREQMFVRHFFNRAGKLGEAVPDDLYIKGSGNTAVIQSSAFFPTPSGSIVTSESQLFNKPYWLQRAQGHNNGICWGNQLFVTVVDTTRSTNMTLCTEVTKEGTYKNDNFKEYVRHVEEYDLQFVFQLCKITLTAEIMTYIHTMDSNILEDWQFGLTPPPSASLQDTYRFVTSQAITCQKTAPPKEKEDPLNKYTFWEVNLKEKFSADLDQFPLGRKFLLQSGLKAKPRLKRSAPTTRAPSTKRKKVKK
Kind of experiment: indirect ELISA, VLP 2 ug/ml coated.

The target in the next experiment is T3, HPV11 VLP (HPV11, UniProt P04012 1-501).
T3 sequence: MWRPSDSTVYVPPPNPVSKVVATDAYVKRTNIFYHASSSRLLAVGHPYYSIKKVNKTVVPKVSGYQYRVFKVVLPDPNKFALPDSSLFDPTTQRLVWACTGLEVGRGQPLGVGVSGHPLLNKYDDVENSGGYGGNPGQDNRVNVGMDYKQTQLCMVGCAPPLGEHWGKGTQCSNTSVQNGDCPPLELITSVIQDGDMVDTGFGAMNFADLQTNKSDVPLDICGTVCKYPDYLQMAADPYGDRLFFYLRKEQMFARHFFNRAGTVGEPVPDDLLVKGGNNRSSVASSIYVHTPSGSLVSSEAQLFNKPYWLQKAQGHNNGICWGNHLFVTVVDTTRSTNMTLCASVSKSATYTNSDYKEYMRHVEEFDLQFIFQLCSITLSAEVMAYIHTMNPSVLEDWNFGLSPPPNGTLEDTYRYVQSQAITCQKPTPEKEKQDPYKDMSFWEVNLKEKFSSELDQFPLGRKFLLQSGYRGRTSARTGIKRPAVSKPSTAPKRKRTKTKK
The experiment can be described thus: SPR, BIACORE 3000.

For the next experiment, the target named is T4, HPV31 VLP (HPV31, UniProt P17388 1-504).
T4 sequence: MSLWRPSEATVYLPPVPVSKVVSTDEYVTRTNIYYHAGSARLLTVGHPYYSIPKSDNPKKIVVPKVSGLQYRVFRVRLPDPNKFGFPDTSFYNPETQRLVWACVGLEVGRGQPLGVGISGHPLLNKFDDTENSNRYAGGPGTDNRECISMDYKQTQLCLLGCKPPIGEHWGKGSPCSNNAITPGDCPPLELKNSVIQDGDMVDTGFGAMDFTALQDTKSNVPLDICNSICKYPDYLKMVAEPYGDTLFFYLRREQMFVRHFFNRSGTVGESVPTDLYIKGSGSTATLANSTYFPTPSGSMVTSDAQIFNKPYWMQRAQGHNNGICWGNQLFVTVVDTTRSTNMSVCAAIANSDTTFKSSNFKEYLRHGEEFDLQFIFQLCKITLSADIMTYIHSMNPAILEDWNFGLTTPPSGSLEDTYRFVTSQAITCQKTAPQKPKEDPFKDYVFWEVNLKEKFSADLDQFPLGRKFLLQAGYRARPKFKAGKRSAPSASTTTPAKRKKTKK
Kind of experiment: SPR, BIACORE 3000.

The target in a further experiment is T5, HPV6 VLP (HPV6, UniProt P69899 1-500).
T5 sequence: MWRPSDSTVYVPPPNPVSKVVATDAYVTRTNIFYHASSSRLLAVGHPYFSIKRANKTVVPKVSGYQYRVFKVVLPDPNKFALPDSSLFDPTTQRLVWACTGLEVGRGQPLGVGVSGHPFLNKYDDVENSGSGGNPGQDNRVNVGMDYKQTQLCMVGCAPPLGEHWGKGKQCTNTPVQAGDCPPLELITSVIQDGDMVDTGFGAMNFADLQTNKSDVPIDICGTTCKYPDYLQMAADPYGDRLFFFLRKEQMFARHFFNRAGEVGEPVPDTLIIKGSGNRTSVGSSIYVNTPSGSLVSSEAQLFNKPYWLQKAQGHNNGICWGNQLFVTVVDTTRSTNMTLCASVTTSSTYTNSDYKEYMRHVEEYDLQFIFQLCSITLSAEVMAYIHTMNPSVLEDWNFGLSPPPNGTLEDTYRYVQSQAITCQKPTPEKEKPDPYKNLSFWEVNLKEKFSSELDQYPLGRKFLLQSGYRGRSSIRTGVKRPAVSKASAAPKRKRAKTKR
The experiment can be described thus: SPR, BIACORE 3000.

A further experiment addresses T6, HPV45 VLP (HPV45, UniProt P36741 30-539).
T6 sequence: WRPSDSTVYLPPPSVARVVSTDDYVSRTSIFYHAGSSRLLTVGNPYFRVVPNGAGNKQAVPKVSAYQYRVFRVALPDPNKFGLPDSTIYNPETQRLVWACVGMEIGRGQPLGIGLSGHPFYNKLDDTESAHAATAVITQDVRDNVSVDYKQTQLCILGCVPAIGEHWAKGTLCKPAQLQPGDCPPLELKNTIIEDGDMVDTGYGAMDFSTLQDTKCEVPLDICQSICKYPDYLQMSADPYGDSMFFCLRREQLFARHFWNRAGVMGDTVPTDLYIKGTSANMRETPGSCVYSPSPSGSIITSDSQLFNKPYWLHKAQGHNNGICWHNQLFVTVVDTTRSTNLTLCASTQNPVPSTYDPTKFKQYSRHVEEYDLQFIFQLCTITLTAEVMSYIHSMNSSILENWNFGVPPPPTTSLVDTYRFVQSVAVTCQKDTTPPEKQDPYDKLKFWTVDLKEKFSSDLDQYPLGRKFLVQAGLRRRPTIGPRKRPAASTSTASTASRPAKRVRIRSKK
Kind of experiment: SPR, BIACORE 3000.

The target of a further experiment is T7, HPV33 VLP (HPV33, UniProt P06416 1-499).
T7 sequence: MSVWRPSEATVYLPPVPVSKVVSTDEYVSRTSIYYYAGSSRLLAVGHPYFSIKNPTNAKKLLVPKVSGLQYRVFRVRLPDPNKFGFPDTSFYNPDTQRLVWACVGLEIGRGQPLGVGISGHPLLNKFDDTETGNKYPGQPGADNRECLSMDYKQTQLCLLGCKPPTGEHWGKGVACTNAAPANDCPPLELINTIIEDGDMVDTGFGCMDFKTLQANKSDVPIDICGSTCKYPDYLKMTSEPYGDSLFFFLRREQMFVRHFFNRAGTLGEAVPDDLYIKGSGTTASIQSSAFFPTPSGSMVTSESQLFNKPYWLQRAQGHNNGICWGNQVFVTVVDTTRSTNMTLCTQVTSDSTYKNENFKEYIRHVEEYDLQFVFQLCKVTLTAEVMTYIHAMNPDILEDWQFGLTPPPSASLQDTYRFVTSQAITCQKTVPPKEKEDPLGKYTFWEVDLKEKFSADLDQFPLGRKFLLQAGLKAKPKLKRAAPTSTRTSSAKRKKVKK
Kind of experiment: SPR, BIACORE 3000.

Sequence of UniProt P03101 (P03101 whole entry): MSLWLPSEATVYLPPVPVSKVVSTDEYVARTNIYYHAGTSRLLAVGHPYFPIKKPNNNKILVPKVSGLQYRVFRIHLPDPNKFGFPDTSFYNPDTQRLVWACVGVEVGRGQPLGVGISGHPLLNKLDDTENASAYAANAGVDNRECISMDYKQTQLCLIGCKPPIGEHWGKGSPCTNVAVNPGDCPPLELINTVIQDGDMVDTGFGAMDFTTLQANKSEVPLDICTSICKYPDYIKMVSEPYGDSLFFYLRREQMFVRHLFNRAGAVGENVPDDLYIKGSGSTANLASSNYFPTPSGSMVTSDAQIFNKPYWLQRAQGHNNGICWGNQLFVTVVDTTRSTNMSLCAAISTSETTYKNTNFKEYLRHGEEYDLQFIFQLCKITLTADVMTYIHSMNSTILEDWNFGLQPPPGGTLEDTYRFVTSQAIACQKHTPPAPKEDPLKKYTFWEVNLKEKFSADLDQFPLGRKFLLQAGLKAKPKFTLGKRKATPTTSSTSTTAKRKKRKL

B1: 单克隆抗体4G12 (杂交瘤细胞株4G12, CGMCC 11298) (antibody, V domains shown)
VH: VKLQQSGAELVKPGASVKLSCTASGFNIKDTYMHWVKQRPEQGLEWIGRIDPANGNPQYDPKFQGKATITADTSSNTACLQLSSLTSEDTAVFYCAREVGGYYFDYWGQGTTVTVSS
VL: DIQLTRSPAIMSASPGEKVTITCSASSSVSYMHWFQQKPGTSPKLWIYSTSNLASGVPARFSGSGSGTSYSLTISRMEAEDAATYYCQQRSSYPWTFGGGTKLEI
In experiment [1], B1 gave a 信号强度 (ELISA) of over 1. Besides, the OD450 in experiment [2] was over 1 OD450. The 抑制率 in [3] was over 40%.

B2: 单克隆抗体5A6 (杂交瘤细胞株5A6, CGMCC 11299) (antibody, V domains shown)
VH: VKLQQSGAELVKPGASVKLSCTASGFNIKDTYMHWVKQRPEQGLEWIGRIDPANGNTEYDPNFQGKATITSDTSSNTAYLHLSSLTSEDTAVYYCAREVGGYYFDYWGQGTTVTVSS
VL: DIQLTQSPSSMSASLGDRITITCQATQDIVKNLNWYQQKPGKPPSFLIYYATELAEGVPSRFSGSGSGSDYSLTISNLESEDFADYYCLQFYEFPLTFGAGTKLEI
notes: Capture antibody of the sandwich kit; also called 克隆5A6
B2 showed a 信号强度 (ELISA) in [1] of over 1. The binding result with HPV-18 L1 VLP is listed as “no binding (tested: 0.3μg/ml)”; with HPV-58 L1 VLP it was “no binding (tested: 0.3μg/ml)”; with HPV11 VLP it was “no binding (tested: antibody up to 20nmol/L)”; with HPV31 VLP, “no binding (tested: antibody up to 20nmol/L)”; with HPV6 VLP, “no binding (tested: antibody up to 20nmol/L)”; in the experiment with HPV45 VLP it was “no binding (tested: antibody up to 20nmol/L)”. For the same molecule, the binding result in the experiment with HPV33 VLP is “no binding (tested: antibody up to 20nmol/L)”. The same molecule gave an OD450 in [2] of over 1 OD450. In [3], this molecule gave a 抑制率 of over 40%.
